According to a protein production outcome set (Wang et al. 2014):

Assay: label from the status in PepcDB records

Sequence	protein production
MSLSGALKENSGKPSEVEYTHFKDLQALEMERGRLYETIVVTWDDSMVGNAAPIGVLCTGDDTVTLYLYQGTRTVENVLNNGRFTVNVTLDPLIFTDSTLGDLEEDMFSHYRDFLHLRGADAFFTAEVVSVKKLVKRDRFGESELHVVKARAGDVMRAESFRMALNRGIYAVIESLIAYTRAEFSDPLVLRERIAEMNRVARKVGGPREKEAMRRIIQALESKISEGHHHHHH	not failed
MKFVSIEKDEILIGNMAKLYCKVFEKTNFNEMIERMNRHIEYTGFKGIVAINDENEVVGFTYGYRSMEGQYYNQLMREALHLEQVDEWLQDCFEFVELAVHPQYQNEGLGTKLHNELLEGIPNRTSVLTTQINNEKARSLYERLDWVNVLEPFHPSKNDVPYVIMGKALKTKVN	failed
MDQPWNANIHYDALLDAMVPLGTQCVLDVGCGDGLLAARLARRIPYVTAVDIDAPVLRRAQTRFANAPIRWLHADIMTAELPNAGFDAVVSNAALHHIEDTRTALSRLGGLVTPGGTLAVVTFVTPSLRNGLWHLTSWVACGMANRVKGKWEHSAPIKWPPPQTLHELRSHVRALLPGACIRRLLYGRVLVTWRAPVLEHHHHHH	failed
MSALDIPVTPENYTVWYEYFAQSNLDLNRAIDGFLANNVVFTKEVNTSLYKNFIQEKSPEVIENVQIETQILINSLISKITQLNQGTEAFSNTLADFGLQLQSSPDVNTLNQLVDGVIDEMQNLLVNNQTMEQSLNAMGQEVQNLKTEMENLSLAAMTDQLTSLHNRRAYEIAIQDHIHRAEEQHTRCSLLLIDIDRFKVFNDTYGHQVGDKVLAYVALALKQCVRGDDFVARYGGEEFVVLLPNTHFHDALQVAETLRGRISERRLAIGKDKKLSLGAITVSIGLASLQKGDDAETLFSRADKALYEAKSDGRNCVRG	failed
MMNTTTLDRYFDLFDASRTDEKAFDDLISLFSDEITFVLNGQEQHGIDAWKQFVRMVFTANQDIKHMYAGWVPSETGDTMETRWAVCGKSADGSVFTQDGTDIARLNADGKIVYLANVPDDTAMFNQYND	not failed
MPVAKKYFEIRWHGRAGQGAKSASQMLAEAALEAGKYVQAFPEYGAERTGAPMRAFNRIGDEYIRVRSAVENPDVVVVIDETLLSPAIVEGLSEDGILLVNTVKDFEFVRKKTGFNGKICVVDATDIALQEIKRGIPNTPMLGALVRVTGIVPLEAIEKRIEKMFGKKFPQEVIDANKRALRRGYEEVKCSE	not failed
MPSDNQRLALLPVGRTGRLDRPSLLLTGGSGVLGRALIDELSPDFDLLCLRRDTPLRDPRVRELQGDLVAPRLGLSPLAWHELALEVDVVLHCAAETDWRTPPQDITRTNLRGADTVLDLAARADAPLYLVSTAFVANTPTEEDRRHFPGAAAYLDSMARAEQMTREAGVPGAIVRPSVVMGDSGSGRIAGRQGLTRMIGSMVLGQAPVLPGAPATRIDMVPRDYVSRAIGDLVRGGVADGEYWLTAGQEAMGLREFADVCADVAVRHGLPRPQRPRFIPVDAVHRLLLPMLAGTSLPASLRRRLEYYAELLLVFQRELPFDTSLGEPDCGTRPTRTDLRAALVRNAESWAGNRAGLLSPNRSAATAPMEVAS	failed
MNIMEIEKTNRMNALFEFYAALLTDKQMNYIELYYADDYSLAEIADEFGVSRQAVYDNIKRTEKILETYEMKLHMYSDYVVRSEIFDDMIAHYPHDEYLQEKISILTSIDNRE	not failed
EGLDYLTAPNPPSIREELCTASHDTITVHWISDDEFSISSYELQYTIFTGQANFISLYNSVDSWMIVPNIKQNHYTVHGLQSGTRYIFIVKAINQAGSRNSEPTRLKTNSQPFK	not failed
MIDFLDVQKETPRIRIAIDRVGVKNIKFPLKIHDDFAFLTLNLFVDVPADRKGADMSRAVESIQKVINAGSYGERIGDIGIAICDEALSRFNYSEKAQCEVNIQYYRRSGERYLEYRMYVETAKDRKQIMKNEIGISYVTMTACPCAMETTRALISMDNPDISDAISAIPTITHNQRNVTKLTVDNRSKMITVWDLADVMERVQGKPLDSLLKRVEEGRLVYSAHRNPKFVEDVVREIAYEAARVLGVPDEATIKVSSESDESIHPHNAYAEIDTTAGELRKLHLH	not failed
NATTLPEALKLMQYIGDAIGTIRDPQELFRTVTDKLRLLFAFDSAVIITIDRERREASVFFEMLRFELPEQLRHQTRSIAGTWLEGHLDDRTVTVASIARDIPSFGADGAPLLWTLHELGMRQIVLSPLRSGGRVIGFLSFVSAEEKLWSDGDKSLLSGVSSSIAIAVSNALAYEELRQREAETSMQLAINNALFTI	not failed
MGHHHHHHSHMIDSIRVEGFRGLKELELSSLRRINVIVGRNNSGKSTLLEALSLFLGSSDPGTFGNVLHEILIWRGWYGIQTVDDLFYNGGDSFSISSTGKTLEALNSKHSLEFKLNGEPFYKIDRESIRRLASQAVLLARFSPKENFEFLTPLTFRRFGYAESLYSYAYERKVVKDSIKVLNEAYPEVEGFSPLLKEDNWVLYVETKYGVYPYYLMGEGFKSAMIISFLSSLLRDGVLLIDSAEAFHHP	failed
MERDENYLRAKKRVENLKAFYIHLTVYILVNLMLFFINISSDSSKLWFLYPLAGWGIGIVIHALTTFPVGIFGKEWEERKIKEYMEKDK	failed
MASADKLINTDVPEKDVFAFHFLQSLSNLRKQNPFDTPDQKNYRVRKIKKAAYVSMARAAGGSSRLWSRALLRRADKDDNKIVRFSRRKWKISSKRRRSNQRAPVVEEAAERLRNLVPGGGGMETSKLMEETAHYIKCLSMQVKVMQCLVDGLSPK	failed
MCTFCSIINRELEGYFVYEDEKFAAILDKYPVSLGHTLVIPKKHFENYLEADEDTLAELAKVVKLVSLGIKDAVKADGLRLLTNIGRSAGQVIFHLHVHIIPTWEGDYPDIFKSFKPRKEQEKEYYELLQKIIRESIENLKRKIGDYKWG	not failed
MELDDAYANGAYIEGAADYPPRWAASAEDFRNSLQDRARLNLSYGEGDRHKFDLFLPEGTPVGLFVFVHGGYWMAFDKSSWSHLAVGALSKGWAVAMPSYELCPEVRISEITQQISQAVTAAAKEIDGPIVLAGHSAGGHLVARMLDPEVLPEAVGARIRNVVPISPLSDLRPLLRTSMNEKFKMDADAAIAESPVEMQNRYDAKVTVWVGGAERPAFLDQAIWLVEAWDADHVIAFEKHHFNVIEPLADPESDLVAVITA	not failed
MGWQTLKQQSVPARKRLLYLHIPFCATHCTFCGFYQNKLRDDSTATYTRYLLQELAMEADSPLHQSAPIHAVYFGGGTPTALAADELSQIIRAIRTSLPLAPDCEITVEGRAMDFDDERIDACLDAGANRFSIGIQTFDTRIRQRMARTSDKQQSIRFLERLCGRDRAAVVCDLMFGLPGQTPEIWREDLAIVSDLPLDGVDLYALNLLPTTPLAKAAENQRVALPDVVARRDFYRTGAAFLADSGWHQLSNSHWARTTRERNLYNLLIKQGADCLAMGSGAGGNINGQAYMMERSLERYYQQIDQGQKPIMMMTPASSTGPWQHQLQAGIEVGRIKLPQLTQHARELQPLLSQWHQAGLTCDDSTCLRLTNDGRFWANNLMQALQQIIPQLNAEEHAHLEHHHHHH	failed
MSAAPGLLHQELSCPLCLQLFDAPVTAECGHSFCRACLGRVAGEPAADGTVLCPCCQAPTRPQALSTNLQLARLVEGLAQVPQGHCEEHLDPLSIYCEQDRALVCGVCASLGSHRGHRLLPAAEAHARLKTQLPQQKLQLQEACMRKEKSVAVLEHQLVEVEETVRQFRGAVGEQLGKMRVFLAALEGSLDCEAERVRGEAGVALRRELGSLNSYLEQLRQMEKVLEEVADKPQTEFLMKYCLVTSRLQKILAESPPPARLDIQLPIISDDFKFQVWRKMFRALMPALEELTFDPSSAHPSLVVSSSGRRVECSEQKAPPAGEDPRQFDKAVAVVAHQQLSEGEHYWEVDVGDKPRWALGVIAAEAPRRGRLHAVPSQGLWLLGLREGKILEAHVEAKEPRALRSPERRPTRIGLYLSFGDGVLSFYDASDADALVPLFAFHERLPRPVYPFFDVCWHDKGKNAQPLLLVGPEGAEA	failed
MKEFLNSLSYGISSHEVNNEFKQIFRELLTNHIIKEHKNKYYLNNGFAFGVLDISSKGTGFLQCFDESFKKDLLIENKNLKGANYKDIVAVKLLPLKKKRPSAKVILVLKRANETSLMITKRYGEAVLGMNIKTGLSTALKASQKSLKALPLGTILKIENENNNIIEVLGHIDDESVDEKISLALFNKNNEFSDACIKEALANGDSVDASMYENRMDLRALPFCTIDPIHAKDFDDAIYFDTQKREIYVAIADVSEYVYAYSAIDKEARNRGFSIYFPHIAIPMLPRPLSENICSLKPHLDRLAYCFKITLNHENKVIKEELFEGIINSKRRFNYDEVDEILIQKPDLKELSWLYELFEITKNLRKMRLKNAFEFRTEELRMNLDENLSLKSTVFEKDTPSHNLIEDCMLLANKAAAKLIDIGVFRNHLSADVRKIDKLLNELRELGIDVNFKPNLPELIRDIQALADELNLRAEVDKLIIKAQKKAEYSSVNAGHFGLGFDKYSHFTSPIRRYSDLILHRLLKAKQKNDEKLFNYLLLNIESTCENLSTLEREADKVAFDFMDRKFARWAAKNIGKKFKALVVQNDGVCIAKLDDEIKGADIILYDTRVNLLENVEVQIMEADIVMAKIYAKITQRLIKEENV	failed
MNYKLTLHPGSNPVEEFTSIPHGVTSLDLSLNNLYSISTVELIQAFANTPASVTSLNLSGNSLGFKNSDELVQILAAIPANVTSLNLSGNFLSYKSSDELVKTLAAIPFTITVLDLGWNDFSSKSSSEFKQAFSNLPASITSLNLRGNDLGIKSSDELIQILAAIPANVNSLNLRGNNLASKNCAELAKFLASIPASVTSLDLSANLLGLKSYAELAYIFSSIPNHVVSLNLCLNCLHGPSLENLKLLKDSLKHLQTVYLDYDIVKNMSKEQCKALGAAFPNIQKIILVDKNGKEIHPSHSIPISNLIRELSGKADVPSLLNQCLIFAQKHQTNIEDLNIPDELRESIQTCKPLLEHHHHHH	not failed
MSCFYLDLLKIKDPSFMKRLDIQELEALAADIRAFLITSTSKSGGHIGPNLGVVELTIALHYSFNSPKDKFIWDVGHQSYVHKILTGRANQFGTLREHGGLDGFPKRKESIHDVFETGHSSTSLSAAAGMVIARDIKKEDFYVIPIIGDGALTGGMALEALNHIGDMGKDMIVILNDNDMSIAPNVGAIHNILGKLRTSDTSKQTKTNVDGAFFEELGFMYLGPIDGHDIEEVITNLELAKRAKGPVLLHIVTKKGKGYQPAELDSRGTWHGTGPYKVETGSFIKPAKRAASWSSVISNELIRLAEMDERIVAITPAMPVGSKLEKFAKAFPERFFDVGIAEQHATTMAAGLATQGMKPFLAIYSTFLQRAYDQLVHDVCRQKLNVVIGIDRAGLVGADGETHQGIFDISFLNSIPNMTISMPKDEVEARQLMDTAFSYNDGPFAIRYPRGEAPGVQVVESNTLIPIGQWETIIQPLDAVILTFGPTIELALKAAEQLEIEGYRVGVINARYIKPLDEALLHKILKQKIPILTVEESLLKGGFGASVLEFIEANNYRDVIMHRIGLPDEFISHGSVSIILESFGISTTGLVLKIKEMLAQSGKLRAKRL	failed
MNHEAVQNYYGEVLQSSADLQTNACCTPDAVPAHLKPVLGKLHDEVMARYYGCGLIAPLALEGARILDLGCGAGRDVYALSALVGESGAVVGVDMTPAQLEVAQAHRAYHAEVFGHAAPNTEFHQGYIEKLDDLPLKPGSFDIIVSNCVLNLATDKAAVLRGAQRLLKPGGEMYFSDVYADRRIPEALARDEVLYGECLSGALYWNDFLSLARGAGFGDPRMVESRLLTIENPELERRVGPIRFLSATYRLFNLAGLEPDCEDYGQAVIYKGTVPHAPHEFVLDDHHVIETGKVFPVCGNSWRMLAESRFAPHFQFIGDFSTHYGIFAGCGGASPFNGLSPVAPAASGGCC	failed
